Literature values as cited in patent US11707610B2, “Ingestible device for delivery of therapeutic agent to the gastrointestinal tract” (BIORA THERAPEUTICS, INC., priority 2019, dated 2023).
Read-outs that look alike come from different tables or passages of the source. Blank lines part the entries; values can stand above or below the substance they belong to.

Assays:
[1] = for bioavailability: by SC injection; for Approved Dosing Info: Bio Avail: Table 16, approved injection, Admin SC
[2] = self-administration of 360,000 units, medical observation

bioavailability [1]: approximately 87% | primary mode of elimination ([1]; in vivo): kidneys | stability at room temperature (room temperature): stable | outcome of overdose [2]: no notable sequelae
Substance: Dalteparin

Substance: Human Growth Hormone [Genotropin ®]
Storage temperature: time after reconstitution (2-8° C., after reconstitution): 2-8 °C 4 weeks

Substance: adalimumab
Approved Dosing Info: Bio Avail [1]: 64% | bioavailability [1]: 64% | bioavailability ([1]; listed as Adalimumab): approximately 64% | half-life ([1]; in vivo): approximately 2 weeks | primary mode of elimination ([1]; in vivo): intracellular catabolism

Substance: certolizumab-pegol [Cimzia ®]
Storage temperature: time at room temp (room temp): 2 hrs at

Substance: etanerecpt [Embrel ®]
Storage temperature: time at 25° C. (25° C.): 14 days

Substance: infliximab [Remicade ®]
Storage temperature: time at 30° C. (30° C.): to 12 months

Substance: semaglutide [compound 4]
Approved Dosing Info: Bio Avail [1]: 89%
